Experimental data as given in PMC12135937.

What was measured:
[1] = target: DIP-β isoform C (Drosophila melanogaster); test: SPR; Biacore T100, CM4 chip; DIPs immobilised by amine coupling (700-900 RU), monomeric Dpr analytes in 3-fold dilution series (0.012 to 9, 27 or 81 µM); 25 °C; 10 mM Tris-HCl pH 7.2, 150 mM NaCl, 1 mM EDTA, 1 mg/mL BSA, 0.01% Tween-20; equilibrium responses fit to a 1:1 model
[2] = target: DIP-β isoform G (Drosophila melanogaster); test: as above
Sequence of DIP-β isoform G (Drosophila melanogaster) (main, as listed by the source): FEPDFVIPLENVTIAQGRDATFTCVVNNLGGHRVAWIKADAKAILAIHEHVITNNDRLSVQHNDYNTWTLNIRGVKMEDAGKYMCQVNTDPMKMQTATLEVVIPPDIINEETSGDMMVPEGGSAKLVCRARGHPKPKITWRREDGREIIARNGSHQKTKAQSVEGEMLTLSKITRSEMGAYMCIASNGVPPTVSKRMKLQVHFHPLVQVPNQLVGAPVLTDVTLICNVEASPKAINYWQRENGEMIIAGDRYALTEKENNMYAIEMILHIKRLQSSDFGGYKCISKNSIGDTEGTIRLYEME

Sequence of DIP-β isoform C (Drosophila melanogaster) (main, as listed by the source): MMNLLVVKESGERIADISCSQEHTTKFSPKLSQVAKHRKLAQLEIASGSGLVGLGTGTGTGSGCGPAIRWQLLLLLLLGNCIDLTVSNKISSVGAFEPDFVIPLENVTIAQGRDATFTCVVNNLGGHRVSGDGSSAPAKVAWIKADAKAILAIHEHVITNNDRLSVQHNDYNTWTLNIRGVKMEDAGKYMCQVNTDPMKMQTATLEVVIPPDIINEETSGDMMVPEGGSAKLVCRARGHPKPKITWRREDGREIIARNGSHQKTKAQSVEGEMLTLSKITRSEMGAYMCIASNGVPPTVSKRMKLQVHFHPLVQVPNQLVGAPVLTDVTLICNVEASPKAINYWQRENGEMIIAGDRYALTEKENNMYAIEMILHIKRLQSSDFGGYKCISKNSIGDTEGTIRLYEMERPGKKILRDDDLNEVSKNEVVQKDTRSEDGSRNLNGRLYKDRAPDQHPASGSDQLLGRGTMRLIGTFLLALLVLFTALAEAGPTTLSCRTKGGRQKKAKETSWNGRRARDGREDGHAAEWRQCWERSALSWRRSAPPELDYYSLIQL

Row | Substance | Kd [1] | Kd [2]
1 | Dpr16 (natural protein) | 180 µM | 60 µM
2 | Dpr17 (natural protein) | 176 µM | 58.7 µM
3 | Dpr9 (natural protein) | 5.97 µM | 3.41 µM

Next, values leading:

Row | Kd [1] | Kd [2] | Substance
4 | 1.32 µM | 0.789 µM | Dpr8 (natural protein)
5 | 106 µM | 180 µM | Dpr11 (natural protein)
